The labels stand for the following.
B1: glmS ribozyme (parent)
chain: AUAAAAGCGCCAGAACUACAGAAAUGUAGUUGACGAGGAGGAGGUUUAUCGAAUUUUCGGCGGAUGCCUCCAAA

± gives the standard error. For some assays here: Variants at the floor of the assay were thinned out.

Conditions in all cases: with glucosamine-6-phosphate
The variants in data set [1] derive from B1. In words: kcat; higher = faster cleavage; RNA array. The method, boiled down: (§1)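 Barcoded ribozyme variants on sequenced MiSeq chips were transcribed in situ by E. coli RNA polymerase and followed at 37 °C through a hybridised Cy3 probe. Glucosamine-6-phosphate at 40 μM to 10 mM in HEPES/KCl/Mg(OAc)2 buffer was flowed in, and tiles were imaged over ~14 h. Signals were normalised to baseline and to non-cleaving reference variants, and per-tile medians were fit to one- or two-exponential decays to give kobs. Weighted Michaelis–Menten fits across concentrations gave kcat and KM.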

Data set [2] covers variants of B1. In words: KM; higher = weaker cofactor use; RNA array. The method, boiled down:
as §1

In data set [3] the parent is B1. In words: self-cleavage kobs at 40 uM GlcN6P; higher = faster cleavage; RNA array. The procedure, abridged:
as §1

In data set [4] the parent is B1. In words: self-cleavage kobs at 2500 uM GlcN6P; higher = faster cleavage; RNA array. The method, boiled down: as §1
Variants of B1 are the subject of data set [5]. In words: self-cleavage kobs at 10000 uM GlcN6P; higher = faster cleavage; RNA array. The method, boiled down: as §1
In data set [6] the parent is B1. Description: self-cleavage kobs at 640 uM GlcN6P; higher = faster cleavage; RNA array. The method, boiled down: as §1
The variants in data set [7] derive from B1. In words: self-cleavage kobs at 160 uM GlcN6P; higher = faster cleavage; RNA array. The procedure, abridged: as §1

The text below walks through data of the supplement of paper PMC7125110.

G13U A52G: the kcat with glucosamine-6-phosphate [1] worked out at 7e-05 ± 5.1e-06 s⁻¹. Also, the KM in the data set with glucosamine-6-phosphate [2] amounted to 817 ± 370 µM. Further, the “self-cleavage kobs at 40 uM GlcN6P” value with glucosamine-6-phosphate [3] is below 1e-05 s⁻¹. The “self-cleavage kobs at 2500 uM GlcN6P” value in the data set with glucosamine-6-phosphate [4] was determined as 6.21e-05 ± 1.3e-05 s⁻¹. In the data set with glucosamine-6-phosphate [5], the “self-cleavage kobs at 10000 uM GlcN6P” value is 6.34e-05 ± 7e-06 s⁻¹.
Consider A6C C8U G35C C58G, for which the kcat with glucosamine-6-phosphate [1] is below 1e-05 s⁻¹. For the same variant, the “self-cleavage kobs at 640 uM GlcN6P” value in the data set with glucosamine-6-phosphate [6] is below 1e-05 s⁻¹. In the data set with glucosamine-6-phosphate [5], the “self-cleavage kobs at 10000 uM GlcN6P” value is below 1e-05 s⁻¹.
On to U56A U57A, for which the kcat in the data set with glucosamine-6-phosphate [1] was found to be 0.000351 ± 3.9e-05 s⁻¹. In the data set with glucosamine-6-phosphate [2], the KM was 3720 ± 820 µM. For the same variant, in the data set with glucosamine-6-phosphate [6], the “self-cleavage kobs at 640 uM GlcN6P” value stood at 4.44e-05 ± 1.7e-05 s⁻¹. Further, the “self-cleavage kobs at 2500 uM GlcN6P” value in the data set with glucosamine-6-phosphate [4] was 0.000155 ± 3.3e-05 s⁻¹. Further, the “self-cleavage kobs at 10000 uM GlcN6P” value in the data set with glucosamine-6-phosphate [5] is 0.00025 ± 4.4e-05 s⁻¹.
U30A U55A: in the data set with glucosamine-6-phosphate [1], the kcat was found to be 0.0085 ± 0.0022 s⁻¹. Also, the KM with glucosamine-6-phosphate [2] was 1850 ± 740 µM. Besides, in the data set with glucosamine-6-phosphate [3], the “self-cleavage kobs at 40 uM GlcN6P” value amounted to 0.000212 ± 3.2e-05 s⁻¹. The “self-cleavage kobs at 160 uM GlcN6P” value in the data set with glucosamine-6-phosphate [7] stood at 0.000501 ± 0.00012 s⁻¹. Also, the “self-cleavage kobs at 2500 uM GlcN6P” value in the data set with glucosamine-6-phosphate [4] is 0.00803 ± 0.0017 s⁻¹. Besides, the “self-cleavage kobs at 10000 uM GlcN6P” value with glucosamine-6-phosphate [5] was 0.00686 ± 0.00088 s⁻¹.
For the variant A15U C16G, the kcat with glucosamine-6-phosphate [1] was determined as 0.00121 ± 0.00041 s⁻¹. In addition, the KM in the data set with glucosamine-6-phosphate [2] amounted to 2570 ± 1300 µM. For the same variant, the “self-cleavage kobs at 40 uM GlcN6P” value with glucosamine-6-phosphate [3] was found to be 2.88e-05 ± 1.4e-05 s⁻¹. Further, in the data set with glucosamine-6-phosphate [7], the “self-cleavage kobs at 160 uM GlcN6P” value was 8.8e-05 ± 1.9e-05 s⁻¹. Also, the “self-cleavage kobs at 640 uM GlcN6P” value with glucosamine-6-phosphate [6] was 0.000169 ± 5.1e-05 s⁻¹. In addition, in the data set with glucosamine-6-phosphate [4], the “self-cleavage kobs at 2500 uM GlcN6P” value was 0.000786 ± 0.0002 s⁻¹. Also, the “self-cleavage kobs at 10000 uM GlcN6P” value with glucosamine-6-phosphate [5] worked out at 0.000952 ± 0.00022 s⁻¹.
Consider U45G U54C, for which the kcat in the data set with glucosamine-6-phosphate [1] came out at 0.0089 ± 0.00053 s⁻¹. Further, the KM with glucosamine-6-phosphate [2] is 1480 ± 160 µM. In the data set with glucosamine-6-phosphate [3], the “self-cleavage kobs at 40 uM GlcN6P” value is 0.000233 ± 5.4e-05 s⁻¹. In addition, in the data set with glucosamine-6-phosphate [7], the “self-cleavage kobs at 160 uM GlcN6P” value turned out to be 0.000851 ± 0.00024 s⁻¹. For the same variant, the “self-cleavage kobs at 640 uM GlcN6P” value in the data set with glucosamine-6-phosphate [6] came out at 0.00308 ± 0.00078 s⁻¹. Moreover, in the data set with glucosamine-6-phosphate [4], the “self-cleavage kobs at 2500 uM GlcN6P” value came out at 0.00519 ± 0.00085 s⁻¹. Further, in the data set with glucosamine-6-phosphate [5], the “self-cleavage kobs at 10000 uM GlcN6P” value was 0.00798 ± 0.001 s⁻¹.
Take C11U U56A C70U: the kcat with glucosamine-6-phosphate [1] was determined as 0.00048 ± 0.00011 s⁻¹. Further, the “self-cleavage kobs at 40 uM GlcN6P” value with glucosamine-6-phosphate [3] turned out to be 3.04e-05 ± 9.5e-06 s⁻¹. The “self-cleavage kobs at 640 uM GlcN6P” value with glucosamine-6-phosphate [6] stood at 0.000508 ± 0.00011 s⁻¹. In the data set with glucosamine-6-phosphate [4], the “self-cleavage kobs at 2500 uM GlcN6P” value amounted to 0.000485 ± 0.00013 s⁻¹. Also, the “self-cleavage kobs at 10000 uM GlcN6P” value with glucosamine-6-phosphate [5] was 0.000416 ± 6.3e-05 s⁻¹.
Regarding C8U C50G, in the data set with glucosamine-6-phosphate [1], the kcat worked out at 0.000208 ± 1.2e-05 s⁻¹. Also, the KM in the data set with glucosamine-6-phosphate [2] is 31 ± 8 µM. For the same variant, in the data set with glucosamine-6-phosphate [3], the “self-cleavage kobs at 40 uM GlcN6P” value was 0.00012 ± 2e-05 s⁻¹. In addition, the “self-cleavage kobs at 160 uM GlcN6P” value in the data set with glucosamine-6-phosphate [7] was determined as 0.000167 ± 2.4e-05 s⁻¹. For the same variant, the “self-cleavage kobs at 640 uM GlcN6P” value in the data set with glucosamine-6-phosphate [6] was determined as 0.000188 ± 3.3e-05 s⁻¹. The “self-cleavage kobs at 2500 uM GlcN6P” value with glucosamine-6-phosphate [4] was 0.000229 ± 3.5e-05 s⁻¹. Besides, the “self-cleavage kobs at 10000 uM GlcN6P” value in the data set with glucosamine-6-phosphate [5] was 0.000178 ± 7.7e-05 s⁻¹.
A15G A33U: the kcat in the data set with glucosamine-6-phosphate [1] stood at 0.0001 ± 9.2e-06 s⁻¹. Besides, in the data set with glucosamine-6-phosphate [2], the KM was 2530 ± 740 µM. The “self-cleavage kobs at 40 uM GlcN6P” value in the data set with glucosamine-6-phosphate [3] was below 1e-05 s⁻¹. Moreover, in the data set with glucosamine-6-phosphate [4], the “self-cleavage kobs at 2500 uM GlcN6P” value turned out to be 5.25e-05 ± 7e-06 s⁻¹. The “self-cleavage kobs at 10000 uM GlcN6P” value with glucosamine-6-phosphate [5] was 7.91e-05 ± 6.4e-06 s⁻¹.
In the case of U30G C50A, the kcat in the data set with glucosamine-6-phosphate [1] was below 1e-05 s⁻¹. For the same variant, the “self-cleavage kobs at 40 uM GlcN6P” value with glucosamine-6-phosphate [3] was below 1e-05 s⁻¹.
With U31C U49G, the kcat in the data set with glucosamine-6-phosphate [1] turned out to be 7.25e-05 ± 2.8e-06 s⁻¹. Moreover, the KM in the data set with glucosamine-6-phosphate [2] turned out to be 1610 ± 200 µM. In addition, the “self-cleavage kobs at 640 uM GlcN6P” value in the data set with glucosamine-6-phosphate [6] amounted to 2.25e-05 ± 9.3e-06 s⁻¹. In addition, the “self-cleavage kobs at 2500 uM GlcN6P” value with glucosamine-6-phosphate [4] is 4.27e-05 ± 7.7e-06 s⁻¹. Further, the “self-cleavage kobs at 10000 uM GlcN6P” value in the data set with glucosamine-6-phosphate [5] was 6.33e-05 ± 9.1e-06 s⁻¹.
In the case of C11U U56C, the kcat with glucosamine-6-phosphate [1] was 0.000248 ± 5e-05 s⁻¹. Besides, the KM with glucosamine-6-phosphate [2] stood at 2260 ± 1000 µM. Further, the “self-cleavage kobs at 640 uM GlcN6P” value in the data set with glucosamine-6-phosphate [6] came to 4.51e-05 ± 9.7e-06 s⁻¹. Besides, in the data set with glucosamine-6-phosphate [4], the “self-cleavage kobs at 2500 uM GlcN6P” value is 0.000176 ± 2.3e-05 s⁻¹. Further, in the data set with glucosamine-6-phosphate [5], the “self-cleavage kobs at 10000 uM GlcN6P” value came to 0.000188 ± 2.3e-05 s⁻¹.
With A12U A42G, the kcat with glucosamine-6-phosphate [1] came out at 0.0985 ± 0.045 s⁻¹. Moreover, the “self-cleavage kobs at 40 uM GlcN6P” value in the data set with glucosamine-6-phosphate [3] is 0.00296 ± 0.00037 s⁻¹. For the same variant, in the data set with glucosamine-6-phosphate [7], the “self-cleavage kobs at 160 uM GlcN6P” value came out at 0.00676 ± 0.0033 s⁻¹. In addition, the “self-cleavage kobs at 640 uM GlcN6P” value with glucosamine-6-phosphate [6] is 0.0249 ± 0.006 s⁻¹. In addition, the “self-cleavage kobs at 10000 uM GlcN6P” value with glucosamine-6-phosphate [5] worked out at 0.116 ± 0.044 s⁻¹.
With A12U G44U, the kcat in the data set with glucosamine-6-phosphate [1] stood at 0.000852 ± 0.00012 s⁻¹. For the same variant, in the data set with glucosamine-6-phosphate [2], the KM was 1290 ± 350 µM. Further, in the data set with glucosamine-6-phosphate [3], the “self-cleavage kobs at 40 uM GlcN6P” value was 3.83e-05 ± 8.2e-06 s⁻¹. Further, in the data set with glucosamine-6-phosphate [7], the “self-cleavage kobs at 160 uM GlcN6P” value was found to be 7.54e-05 ± 1.9e-05 s⁻¹. For the same variant, the “self-cleavage kobs at 640 uM GlcN6P” value in the data set with glucosamine-6-phosphate [6] was 0.000264 ± 4.7e-05 s⁻¹. Besides, the “self-cleavage kobs at 2500 uM GlcN6P” value with glucosamine-6-phosphate [4] is 0.000645 ± 0.0001 s⁻¹. Also, the “self-cleavage kobs at 10000 uM GlcN6P” value with glucosamine-6-phosphate [5] was 0.000739 ± 8e-05 s⁻¹.

As a reminder, the kcat is the number of substrate molecules converted per active site and unit of time at saturation. As a reminder, the KM is the substrate concentration at which the rate is half of its maximum.
